# IntAct's records for PubMed 31515488
# B1: PIH1 domain-containing protein 2 (Homo sapiens), Q8WWB5 (parent)
# chain: METSSKGLLTQVTQFWNLLDDLAQSDPEGYEKFIQQQLKEGKQLCAAPEPQLCLQTRILKPKEKILFINLCQWTRIPAPQSTTHPVPLTVGKPEDTTEISDAYTVIDVAYNPDVLHAAEKDQVKKNQLIQMAMKCIEEKFQFTLSHSYHITKFRIKGSIQRMKQNLMGIQTDSIDLREKMRRELTLGQIRSSTMSNPDHFPQLLLPKDQVSGKAVCLIEEISSTEIQVEMKMPAYELKIVHDHSEKPLKIELKVELPGINSVSLCDLSVSEDDLLIEVSEKYRLHLNLPKLIDTEMTTAKFIKEKSTLIITMPLV
# B2: Nebulette (Homo sapiens), O76041 (parent)
# chain: MRVPVFEDIKDETEEEKIGEEENEEDQVFYKPVIEDLSMELARKCTELISDIRYKEEFKKSKDKCTFVTDSPMLNHVKNIGAFISEAKYKGTIKADLSNSLYKRMPATIDSVFAGEVTQLQSEVAYKQKHDAAKGFSDYAHMKEPPEVKHAMEVNKHQSNISYRKDVQDTHTYSAELDRPDIKMATQISKIISNAEYKKGQGIMNKEPAVIGRPDFEHAVEASKLSSQIKYKEKFDNEMKDKKHHYNPLESASFRQNQLAATLASNVKYKKDIQNMHDPVSDLPNLLFLDHVLKASKMLSGREYKKLFEENKGMYHFDADAVEHLHHKGNAVLQSQVKYKEEYEKNKGKPMLEFVETPSYQASKEAQKMQSEKVYKEDFEKEIKGRSSLDLDKTPEFLHVKYITNLLREKEYKKDLENEIKGKGMELNSEVLDIQRAKRASEMASEKEYKKDLESIIKGKGMQAGTDTLEMQHAKKAAEIASEKDYKRDLETEIKGKGMQVSTDTLDVQRAKKASEMASQKQYKKDLENEIKGKGMQVSMDIPDILRAKRTSEIYSQRKYKDEAEKMLSNYSTIADTPEIQRIKTTQQNISAVFYKKEVGAGTAVKDSPEIERVKKNQQNISSVKYKEEIKHATAISDPPELKRVKENQKNISNLQYKEQNYKATPVSMTPEIERVRRNQEQLSAVKYKGELQRGTAISDPPELKRAKENQKNISNVYYRGQLGRATTLSVTPEMERVKKNQENISSVKYTQDHKQMKGRPSLILDTPAMRHVKEAQNHISMVKYHEDFEKTKGRGFTPVVDDPVTERVRKNTQVVSDAAYKGVHPHIVEMDRRPGIIVDLKVWRTDPGSIFDLDPLEDNIQSRSLHMLSEKASHYRRHWSRSHSSSTFGTGLGDDRSEISEIYPSFSCCSEVTRPSDEGAPVLPGAYQQSHSQGYGYMHQTSVSSMRSMQHSPNLRTYRAMYDYSAQDEDEVSFRDGDYIVNVQPIDDGWMYGTVQRTGRTGMLPANYIEFVN
# partner: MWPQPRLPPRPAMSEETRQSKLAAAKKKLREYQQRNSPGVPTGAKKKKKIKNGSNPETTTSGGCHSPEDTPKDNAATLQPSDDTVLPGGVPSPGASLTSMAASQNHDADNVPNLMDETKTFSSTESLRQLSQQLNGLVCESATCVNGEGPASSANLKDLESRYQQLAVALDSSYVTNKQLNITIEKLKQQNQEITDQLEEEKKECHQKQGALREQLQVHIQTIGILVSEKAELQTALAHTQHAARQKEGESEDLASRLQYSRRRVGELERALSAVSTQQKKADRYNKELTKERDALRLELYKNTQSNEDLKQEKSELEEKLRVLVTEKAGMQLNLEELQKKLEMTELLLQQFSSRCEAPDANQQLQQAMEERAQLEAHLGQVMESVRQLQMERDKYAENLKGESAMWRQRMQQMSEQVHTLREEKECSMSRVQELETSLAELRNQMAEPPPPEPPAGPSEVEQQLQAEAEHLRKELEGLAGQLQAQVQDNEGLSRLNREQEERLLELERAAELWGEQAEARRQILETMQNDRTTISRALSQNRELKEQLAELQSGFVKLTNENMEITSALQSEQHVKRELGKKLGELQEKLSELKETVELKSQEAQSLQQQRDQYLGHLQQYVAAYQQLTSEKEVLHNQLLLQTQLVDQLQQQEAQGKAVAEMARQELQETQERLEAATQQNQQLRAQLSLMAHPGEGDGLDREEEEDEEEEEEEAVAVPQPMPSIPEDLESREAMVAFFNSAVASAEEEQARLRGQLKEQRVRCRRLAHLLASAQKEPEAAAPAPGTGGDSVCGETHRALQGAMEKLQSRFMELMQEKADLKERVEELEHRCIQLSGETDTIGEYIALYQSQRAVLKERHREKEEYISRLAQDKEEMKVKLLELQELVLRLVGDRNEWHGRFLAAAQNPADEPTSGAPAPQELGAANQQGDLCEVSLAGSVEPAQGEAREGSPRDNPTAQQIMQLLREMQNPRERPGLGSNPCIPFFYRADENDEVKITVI
# B3: Elongin-A2 (Homo sapiens), Q8IYF1 (parent)
# chain: MAAGSTTLHAVEKLQVRLATKTEPKKLEKYLQKLSALPMTADILAETGIRKTVKRLRKHQHVGDFARDLAARWKKLVLVDRNTRPGPQDPEESASRQRFGEALQDQEKAWGFPENATAPRSPSHSPEHRRTARRTPPGQQRPHPRSHSREPRAERKCPRIAPADSGRYRASPTRTAPLRMPEGPEPAAPGKQPGRGHTHAAQGGPLLCPGCQGQPQGKAVVSHSKGHKSSRQEKRPLCAQGDWHSPTLIREKSCGACLREETPRMPSWASARDRQPSDFKTDKEGGQAGSGQRVPALEEAPDSHQKRPQHSHSNKKRPSLDGRDPGNGTHGLSPEEKEQLSNDRETQEGKPPTAHLDRTSVSSLSEVEEVDMAEEFEQPTLSCEKYLTYDQLRKQKKKTGKSATTALGDKQRKANESKGTRESWDSAKKLPPVQESQSERLQAAGADSAGPKTVPSHVFSELWDLSEAWMQANYDPLSDSDSMTSQAKPEALSSPKFREEAAFPGRRVNAKMPVYSGSRPACQLQVPTLRQQCAQVLRNNPDALSDVGEVPYWVLEPVLEGWRPDQLYRRKKDNHALVRETDELRRNHCFQDFKEEKPQENKTWREQYLRLPDAPEQRLRVMTTNIRSARGNNPNGREAKMICFKSVAKTPYDTSRRQEKSAGDADPENGEIKPASKPAGSSHTPSSQSSSGGGRDSSSSILRWLPEKRANPCLSSSNEHAAPAAKTRKQAAKKVAPLMAKAIRDYKRRFSRR
# partner: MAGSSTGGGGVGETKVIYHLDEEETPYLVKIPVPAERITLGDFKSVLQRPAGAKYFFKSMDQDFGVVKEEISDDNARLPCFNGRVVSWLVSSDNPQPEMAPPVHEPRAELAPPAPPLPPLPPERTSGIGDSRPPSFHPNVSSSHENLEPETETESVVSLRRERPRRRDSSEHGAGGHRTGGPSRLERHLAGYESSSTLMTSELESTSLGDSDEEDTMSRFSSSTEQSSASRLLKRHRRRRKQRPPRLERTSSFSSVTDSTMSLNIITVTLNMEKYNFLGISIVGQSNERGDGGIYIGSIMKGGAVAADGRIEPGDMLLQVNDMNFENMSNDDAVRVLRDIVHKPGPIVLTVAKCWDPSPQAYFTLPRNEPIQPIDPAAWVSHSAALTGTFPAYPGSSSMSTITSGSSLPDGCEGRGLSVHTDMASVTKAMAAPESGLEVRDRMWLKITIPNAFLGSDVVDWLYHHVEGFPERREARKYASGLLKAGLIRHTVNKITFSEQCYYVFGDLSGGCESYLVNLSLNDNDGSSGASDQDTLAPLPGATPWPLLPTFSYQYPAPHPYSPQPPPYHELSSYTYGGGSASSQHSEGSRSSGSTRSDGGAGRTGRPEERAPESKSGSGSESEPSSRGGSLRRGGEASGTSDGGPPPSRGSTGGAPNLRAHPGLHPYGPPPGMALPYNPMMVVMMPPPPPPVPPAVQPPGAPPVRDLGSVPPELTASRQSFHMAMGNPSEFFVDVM
# Variants of: B1
# Details: with cenpr_human ITGB3BP
row,Variant,effect of a mutation on the interaction
1,A102D,with no effect

# Variants of: B1
# Details: with if2b3_human IGF2BP3, O00425
# Sequence of if2b3_human IGF2BP3, O00425 (O00425 whole entry): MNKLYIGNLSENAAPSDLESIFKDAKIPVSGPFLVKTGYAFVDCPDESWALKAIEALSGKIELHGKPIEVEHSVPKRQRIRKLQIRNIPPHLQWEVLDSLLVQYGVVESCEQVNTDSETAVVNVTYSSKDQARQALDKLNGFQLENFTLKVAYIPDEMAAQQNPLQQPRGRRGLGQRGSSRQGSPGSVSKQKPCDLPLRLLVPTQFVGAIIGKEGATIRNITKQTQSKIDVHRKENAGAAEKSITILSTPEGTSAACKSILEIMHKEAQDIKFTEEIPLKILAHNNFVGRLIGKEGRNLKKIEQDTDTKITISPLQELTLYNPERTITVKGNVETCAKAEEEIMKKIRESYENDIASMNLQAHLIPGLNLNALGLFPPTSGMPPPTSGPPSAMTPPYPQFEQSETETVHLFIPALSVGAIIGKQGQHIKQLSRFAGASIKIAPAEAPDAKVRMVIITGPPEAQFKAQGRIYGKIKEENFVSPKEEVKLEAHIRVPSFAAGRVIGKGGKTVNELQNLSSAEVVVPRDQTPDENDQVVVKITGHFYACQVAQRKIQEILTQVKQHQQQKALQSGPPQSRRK
row,Variant,effect of a mutation on the interaction
1,A102D,with no effect

# Variants of: B1
# Details: with if4a2_human EIF4A2, Q14240
# Sequence of if4a2_human EIF4A2, Q14240 (Q14240 whole entry): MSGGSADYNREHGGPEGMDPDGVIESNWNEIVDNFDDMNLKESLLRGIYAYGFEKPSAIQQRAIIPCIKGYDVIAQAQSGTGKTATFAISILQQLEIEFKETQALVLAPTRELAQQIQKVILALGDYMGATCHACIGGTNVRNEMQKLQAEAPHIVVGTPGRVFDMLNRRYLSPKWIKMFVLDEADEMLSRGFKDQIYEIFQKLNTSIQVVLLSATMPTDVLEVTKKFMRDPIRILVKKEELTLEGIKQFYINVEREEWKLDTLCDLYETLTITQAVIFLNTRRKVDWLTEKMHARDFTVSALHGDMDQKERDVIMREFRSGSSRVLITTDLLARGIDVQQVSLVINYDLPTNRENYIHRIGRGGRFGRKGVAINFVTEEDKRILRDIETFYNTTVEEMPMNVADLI
row,Variant,effect of a mutation on the interaction
1,A102D,with no effect

# Variants of: B1
# Details: with gfap_human GFAP
row,Variant,effect of a mutation on the interaction
1,A102D,with no effect

# Variants of: B2
# Details: with goga2_human GOLGA2, Q08379
row,Variant,effect of a mutation on the interaction
1,M351V,with no effect
2,R613Q,with no effect

# Variants of: B3
# Details: with dvl2_human DVL2, O14641
row,Variant,effect of a mutation on the interaction
1,D302H,with no effect
2,R179P,with no effect
3,C254F,with no effect

# Second part, the variant after the results:
row,effect of a mutation on the interaction,Variant
1,with no effect,A446T
2,with no effect,R498Q
